In article PMC10419011:

Key:
[1] = molecular target: Y1R-eYFP_N1 C198^45.50A (human) (UniProt P25929)
[2] = molecular target: Y1R-eYFP_N1 C113^3.25A (human) (UniProt P25929)
[3] = molecular target: HA-Y2R-eYFP_N1 C203^45.50A (human) (UniProt P49146)
[4] = molecular target: HA-Y2R-eYFP_N1 C123^3.25A (human) (UniProt P49146)
[5] = molecular target: Nluc-Y2R-eYFP_N1 (wild-type neuropeptide Y2 receptor) (human) (UniProt P49146); assay: FRET or BRET; NanoBRET ligand binding: membrane preparations of HEK293 cells with Nluc-Y1/2R-eYFP, TAMRA-labeled peptide titrated, 10 min at room temperature, HBSS with 20 mM HEPES pH 7.4, 0.1% BSA; unspecific binding (excess unlabeled NPY or antagonist) subtracted; biphasic fit
[6] = molecular target: Nluc-Y1R-eYFP_N1 C113^3.25A (human) (UniProt P25929); assay: as above
[7] = molecular target: MOR-eYFP_pVitro2 (wild-type µ-type opioid receptor) (UniProt P35372); assay: FRET or BRET; arrestin recruitment in live HEK293 cells: Nluc-arr3 (donor) and MOR-eYFP (acceptor), stimulated with β-endorphin (0.01 nM to 10 µM)
[8] = molecular target: FLAG-CRF1R-eGFP_N1 C188^3.29A (human (by the printed accession)) (UniProt P34998); assay: FRET or BRET; arrestin recruitment in live HEK293 cells: Nluc-arr3 (donor) and FLAG-CRF1R-eGFP (acceptor), stimulated with CRF (up to 10 µM)
[9] = molecular target: FLAG-CRF1R-eGFP_N1 (wild-type corticotropin-releasing factor receptor 1, R2 isoform) (human (by the printed accession)) (UniProt P34998); assay: as above
[10] = molecular target: HA-Y2R-eYFP_N1 (wild-type neuropeptide Y2 receptor) (human) (UniProt P49146); assay: FRET or BRET; arrestin recruitment in live HEK293 cells: Nluc-arr3 (donor) and receptor-eYFP (acceptor) co-transfected, stimulated with NPY (0.01 nM to 10 µM), HBSS with 20 mM HEPES pH 7.4, read 5, 10 and 15 min after stimulation
[11] = molecular target: Y1R-eYFP_N1 (wild-type neuropeptide Y1 receptor) (human) (UniProt P25929); assay: as above
[12] = molecular target: AT1R-eYFP_N1 (wild-type angiotensin II type 1 receptor) (UniProt P30556); assay: FRET or BRET; arrestin recruitment in live HEK293 cells: Nluc-arr3 (donor) and AT1R-eYFP (acceptor), stimulated with agonist peptide (angiotensin II; 0.01 nM to 10 µM)
[13] = molecular target: MOR-eYFP_pVitro2 (wild-type µ-type opioid receptor) (UniProt P35372); assay: FRET or BRET; arrestin recruitment in live HEK293 cells: Nluc-arr3 (donor) and MOR-eYFP (acceptor), stimulated with endomorphin-1 (0.01 nM to 10 µM)

Sequence of Nluc-tagged bovine arrestin3 (P32120 whole entry): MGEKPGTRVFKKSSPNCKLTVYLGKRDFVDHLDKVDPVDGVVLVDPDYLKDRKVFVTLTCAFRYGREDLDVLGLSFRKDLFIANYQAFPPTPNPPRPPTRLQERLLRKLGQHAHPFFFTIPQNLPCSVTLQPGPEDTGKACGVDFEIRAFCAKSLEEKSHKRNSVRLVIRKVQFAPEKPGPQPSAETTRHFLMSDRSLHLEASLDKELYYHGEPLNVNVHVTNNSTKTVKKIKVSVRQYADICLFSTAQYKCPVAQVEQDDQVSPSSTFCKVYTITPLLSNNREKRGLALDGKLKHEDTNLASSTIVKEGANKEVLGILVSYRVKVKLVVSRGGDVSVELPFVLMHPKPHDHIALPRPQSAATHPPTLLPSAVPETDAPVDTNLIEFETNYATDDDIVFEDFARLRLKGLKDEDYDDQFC
Sequence of Y1R-eYFP_N1 C198^45.50A (human) (P25929 whole entry C198A): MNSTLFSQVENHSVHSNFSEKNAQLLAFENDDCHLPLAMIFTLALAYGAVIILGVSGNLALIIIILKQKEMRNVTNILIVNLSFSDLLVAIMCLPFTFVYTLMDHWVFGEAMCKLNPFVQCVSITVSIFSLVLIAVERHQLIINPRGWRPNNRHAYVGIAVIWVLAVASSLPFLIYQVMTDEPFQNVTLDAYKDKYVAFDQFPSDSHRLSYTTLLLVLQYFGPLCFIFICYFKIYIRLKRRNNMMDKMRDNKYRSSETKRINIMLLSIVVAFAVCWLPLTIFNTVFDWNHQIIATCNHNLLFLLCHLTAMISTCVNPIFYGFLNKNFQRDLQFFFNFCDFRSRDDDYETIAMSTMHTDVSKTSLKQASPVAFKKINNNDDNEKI
Sequence of FLAG-CRF1R-eGFP_N1 C188^3.29A (human (by the printed accession)) (P34998 24-415 C188A): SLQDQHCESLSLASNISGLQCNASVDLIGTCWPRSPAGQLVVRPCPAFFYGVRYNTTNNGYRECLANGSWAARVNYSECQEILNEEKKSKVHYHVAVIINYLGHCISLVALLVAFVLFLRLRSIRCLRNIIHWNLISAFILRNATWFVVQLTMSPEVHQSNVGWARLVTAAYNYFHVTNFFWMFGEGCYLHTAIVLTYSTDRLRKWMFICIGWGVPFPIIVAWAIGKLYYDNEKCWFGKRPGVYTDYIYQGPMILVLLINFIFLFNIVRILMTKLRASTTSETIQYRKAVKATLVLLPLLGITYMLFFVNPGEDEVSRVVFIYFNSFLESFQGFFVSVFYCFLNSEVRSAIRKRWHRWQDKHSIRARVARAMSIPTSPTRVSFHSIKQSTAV
Sequence of Y1R-eYFP_N1 C113^3.25A (human) (P25929 whole entry C113A): as the sequence (P25929 whole entry C198A) above, with C113A, A198C counted along it
Sequence of Nluc-Y1R-eYFP_N1 C113^3.25A (human) (P25929 whole entry C113A): as the sequence (P25929 whole entry C198A) above, with C113A, A198C counted along it
Sequence of AT1R-eYFP_N1 (wild-type angiotensin II type 1 receptor) (P30556 whole entry): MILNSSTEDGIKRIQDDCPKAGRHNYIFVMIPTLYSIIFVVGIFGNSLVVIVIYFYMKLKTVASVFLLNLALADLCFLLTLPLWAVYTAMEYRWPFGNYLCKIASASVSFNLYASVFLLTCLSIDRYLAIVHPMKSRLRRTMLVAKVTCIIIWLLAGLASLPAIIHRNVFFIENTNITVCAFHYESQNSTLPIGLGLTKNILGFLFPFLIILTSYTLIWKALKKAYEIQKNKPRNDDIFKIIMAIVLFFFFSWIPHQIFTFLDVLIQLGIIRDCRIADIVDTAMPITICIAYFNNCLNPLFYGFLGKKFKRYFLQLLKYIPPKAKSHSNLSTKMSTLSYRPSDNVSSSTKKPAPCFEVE
Sequence of Y1R-eYFP_N1 (wild-type neuropeptide Y1 receptor) (human) (P25929 whole entry): as the sequence (P25929 whole entry C198A) above, with A198C counted along it
Sequence of FLAG-CRF1R-eGFP_N1 (wild-type corticotropin-releasing factor receptor 1, R2 isoform) (human (by the printed accession)) (P34998 24-415): as the sequence (P34998 24-415 C188A) above, with A165C counted along it

**Q.** Which results are given for “neuropeptide Y (NPY) (from UniProt P01303 29-64)”?
**A.** inositol monophosphate accumulation via chimeric G-protein: shift of EC50 against wild-type Y1R (57% loss of Emax) [1]: 50 fold; inositol monophosphate accumulation via chimeric G-protein: shift of EC50 against wild-type Y1R (41% loss of Emax) [2]: 26 fold; cAMP reporter gene assay (Gi/o pathway): shift of the EC50 of NPY against wild-type Y2R; full activation at 10 µM NPY [3]: 10000 fold; cAMP reporter gene assay (Gi/o pathway): shift of the EC50 of NPY against wild-type Y2R; full activation at 10 µM NPY [4]: 10000 fold

**Q.** How did the Kd of the high-affinity state [5] turn out when K^18-TAMRA-NPY (peptide) was run?
**A.** The Kd of the high-affinity state was 2.3 nM.

**Q.** And the Kd of the low-affinity state [5]?
**A.** The Kd of the low-affinity state was 267 nM.

**Q.** What about the fold shift in Kd against wild-type Y1R [6] of the same substance?
**A.** The fold shift in Kd against wild-type Y1R was 7 fold.

**Q.** “Nluc-tagged bovine arrestin3 (from UniProt P32120 1-420) (natural protein)” was tested. Which EC50 of the agonist β-endorphin for arrestin3 recruitment [7] did it give?
**A.** Its EC50 of the agonist β-endorphin for arrestin3 recruitment is > 3000 nM.

**Q.** And the fold shift in the agonist's EC50 for arrestin3 recruitment against wild-type CRF1R [8]?
**A.** The fold shift in the agonist's EC50 for arrestin3 recruitment against wild-type CRF1R was 8 fold.

**Q.** What about the EC50 of the agonist CRF for arrestin3 recruitment [9] of the same substance?
**A.** Its EC50 of the agonist CRF for arrestin3 recruitment is 37 nM.

**Q.** And the EC50 of the agonist NPY for arrestin3 recruitment [10]?
**A.** Its EC50 of the agonist NPY for arrestin3 recruitment is 96 nM.

**Q.** And the EC50 of the agonist NPY for arrestin3 recruitment [11]?
**A.** The EC50 of the agonist NPY for arrestin3 recruitment was 8 nM.

**Q.** What about the EC50 of the agonist for arrestin3 recruitment [12] of the same substance?
**A.** Its EC50 of the agonist for arrestin3 recruitment is 3.6 nM.

**Q.** What about the EC50 of the agonist endomorphin-1 for arrestin3 recruitment [13] of the same substance?
**A.** Its EC50 of the agonist endomorphin-1 for arrestin3 recruitment is 375 nM.
